This is an account of results in patent publication US20220033501A1 (SHANGHAI PHARMAEXPLORER, published 2022).

Assay [1] deals with T1, murine TIM-3 protein with hFc tag (mTIM-3-hFc protein) (mouse; human, UniProt Q8VIM0 29-191).
T1 construct: Made in HEK293 cells; also called mouse TIM-3 extracellular domain protein; not shown: human IgG Fc fragment (hFc) of the pCpC vector
T1 chain: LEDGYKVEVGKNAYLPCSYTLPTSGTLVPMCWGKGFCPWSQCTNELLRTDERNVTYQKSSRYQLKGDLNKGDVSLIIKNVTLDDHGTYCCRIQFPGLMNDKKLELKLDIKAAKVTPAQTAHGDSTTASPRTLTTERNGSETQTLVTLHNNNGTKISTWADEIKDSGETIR
As to the kind of experiment: ELISA, coated mTIM-3-hFc.

Assay [2] concerns the target T2, human TIM-3 protein with hFc tag (hTIM-3-hFc protein) (human, UniProt Q8TDQ0 22-200).
T2 construct: also called immunogen 1; human TIM-3 extracellular domain protein; not shown: human IgG Fc fragment (hFc) of the pCpC vector
T2 sequence: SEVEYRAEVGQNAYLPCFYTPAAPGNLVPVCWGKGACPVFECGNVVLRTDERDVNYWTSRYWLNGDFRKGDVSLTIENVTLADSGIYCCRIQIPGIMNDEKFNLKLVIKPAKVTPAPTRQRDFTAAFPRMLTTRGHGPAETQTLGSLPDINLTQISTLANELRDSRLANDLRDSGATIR
As to the kind of experiment: ELISA, coated hTIM-3-hFc; antibody 0.0067 nM. An excerpt: (§1) The amino acid sequence 22-200 of the extracellular domain of the human TIM-3 protein described in the step of Example 1 (as shown in SEQ ID NO. 71 in the sequence listing) was cloned into a pCpC vector having a human IgG Fc fragment (hFc), and transfected into HEK293 cells. The cell culture medium was collected, and purified to obtain the human TIM-3 protein with hFc tag (herein referred to as hTIM-3-hFc protein). The amino acid sequence 22-201 of the extracellular domain of the monkey TIM-3 protein (as shown in SEQ ID NO. 72 in the sequence listing) was cloned into a pCpC vector having a human IgG Fc fragment (hFc), and transfected into HEK293 cells. The cell culture medium was collected, and purified to obtain the monkey TIM-3 protein with hFc tag (herein referred to as cTIM-3-hFc protein). […] The cell culture medium was collected, and purified to obtain the murine TIM-3 protein with hFc tag (herein referred to as mTIM-3-hFc protein). Purified human, monkey, and mouse TIM-3 extracellular domain proteins (hTIM-3-hFc, cTIM-3-hFc, and mTIM-3-hFc) were diluted with PBS to a final concentration of 1.0 μg/ml and then added to a 96-well ELISA plate with 100 μl per well. The plate was sealed with plastic film and incubated overnight at 4° C. The plate was washed 4 times with the plate washing solution (PBS+0.01% Tween20) on the next day, and added with the blocking solution (PBS+0.01% Tween20+1% BSA) and sealed at room temperature for 1-2 hours. The blocking solution was poured out. 50-100 μl of the antibody sample to be tested was added to each well. The plate was incubated at 37° C. for 1-2 hours, and washed 2-3 times with plate washing solution (PBS+0. 01% Tween20). HRP (horseradish peroxidase) labeled secondary antibody was added. The plate was incubated at 37° C. for 1-2 hours, and washed 2-3 times with plate washing solution (PBS+0. 01% Tween20). […] of TMB substrate was added to each well. After incubated at room temperature for 15-30 minutes, the plate was added with […] stop solution (1.0N HCl) to each well. An ELISA plate reader (TiterMax 384plus, Molecular Device) was used to read the A450 nm value.
(In general: In an ELISA, binding on a coated surface is turned into a signal by an enzyme label.)

In assay [3] the target is T2, human TIM-3 protein with hFc tag …. As to the kind of experiment: ELISA, coated hTIM-3-hFc; antibody 0.6667 nM.
Text: as §1

Assay [4] deals with T3, monkey TIM-3 protein with hFc tag (cTIM-3-hFc protein) (monkey; human).
T3 construct: Made in HEK293 cells; also called monkey TIM-3 extracellular domain protein; not shown: human IgG Fc fragment (hFc) of the pCpC vector
T3 chain: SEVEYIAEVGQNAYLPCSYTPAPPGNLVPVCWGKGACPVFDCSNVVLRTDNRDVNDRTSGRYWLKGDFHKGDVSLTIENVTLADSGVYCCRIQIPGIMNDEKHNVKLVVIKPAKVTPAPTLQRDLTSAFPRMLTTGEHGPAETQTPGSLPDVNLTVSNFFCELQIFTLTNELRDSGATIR
As to the kind of experiment: ELISA, coated cTIM-3-hFc; antibody 0.0067 nM.
Text: as §1

Assay [5] deals with T3, monkey TIM-3 protein with hFc tag …. As to the kind of experiment: ELISA, coated cTIM-3-hFc; antibody 0.6667 nM.
Text: as §1

Assay [6] concerns the target T4, human TIM-3 on CHOK1 stable cell line (CHOK1-hTIM-3) (human, UniProt Q8TDQ0 22-301).
T4 sequence: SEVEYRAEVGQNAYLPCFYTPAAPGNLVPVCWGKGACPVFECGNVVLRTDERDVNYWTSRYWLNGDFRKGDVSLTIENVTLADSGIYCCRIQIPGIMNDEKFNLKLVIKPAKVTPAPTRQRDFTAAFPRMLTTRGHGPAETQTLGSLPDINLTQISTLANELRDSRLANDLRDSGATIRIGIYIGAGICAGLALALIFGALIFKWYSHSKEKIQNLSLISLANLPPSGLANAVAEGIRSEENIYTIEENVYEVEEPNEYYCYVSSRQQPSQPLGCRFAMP
Briefly: FACS, CHOK1-hTIM-3 cells, 0.32 nM antibody.

Assay [7] has as its target T4, human TIM-3 on CHOK1 stable cell line …. Briefly: FACS, CHOK1-hTIM-3 cells, 0.013 nM antibody. On the technique in general: A flow cytometer gives signals particle by particle.
Assay [8] has as its target T5, human TIM-3 extracellular domain protein with hFc tag (hTIM-3-hFc) (human, UniProt Q8TDQ0 22-200).
T5 construct: not shown: human IgG Fc fragment (hFc) of the pCpC vector
T5 sequence: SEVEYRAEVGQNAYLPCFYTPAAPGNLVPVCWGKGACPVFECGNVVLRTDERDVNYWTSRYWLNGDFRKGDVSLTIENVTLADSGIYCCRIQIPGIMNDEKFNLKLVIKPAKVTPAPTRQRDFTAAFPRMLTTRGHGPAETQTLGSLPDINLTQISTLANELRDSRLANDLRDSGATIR
As to the kind of experiment: ELISA, coated human TIM-3 ECD protein, 0.0001 nM antibody.

In assay [9] the target is T6, monkey TIM-3 extracellular domain protein with hFc tag (cTIM-3-hFc) (monkey).
T6 construct: not shown: human IgG Fc fragment (hFc) of the pCpC vector
T6 chain: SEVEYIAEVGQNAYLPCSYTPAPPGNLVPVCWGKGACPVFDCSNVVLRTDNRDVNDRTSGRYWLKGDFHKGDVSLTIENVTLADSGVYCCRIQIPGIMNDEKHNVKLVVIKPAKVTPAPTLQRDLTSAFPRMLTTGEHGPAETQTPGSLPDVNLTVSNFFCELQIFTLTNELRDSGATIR
As to the kind of experiment: ELISA, coated monkey TIM-3 ECD protein, 0.0067 nM antibody.

B1: 34B6D8 (TIM-3 antibody purified from hybridoma, chimeric antibody of Example 2) (antibody, V domains shown)
VH: EVQLVESGGGLVQPGGSLRLSCAASGFTFSTYWMTWVRQAPGKRLEWVANIKQGGGDKYYVDSVKGRFTISTDNAKNSLYLQMNSLRAEDTAVYYCARGSNWFDPWGQGTLVTVSS
VL: EIVMTQSPATLSMSPGERATLSCRASQSVYDNLAWYQQKPGQAPRLLIYGASTRATGIPARFSGSGSGTEFTLTISSLQSEDFALYYCQQYTHWPITFGQGTRLEIK
notes: From hybridoma of Harbour H2L2 transgenic mice: human variable regions, rat constant regions
On to B1, for which, in assay [1], the binding result was “no binding (tested: 66.667 nM)”. Further, the OD450 in [2] was determined as 0.33; in assay [3], 3.41; in assay [4], 0.78; in assay [5] it was 3.44.

B2: 215A8F2 (TIM-3 antibody purified from hybridoma, chimeric antibody of Example 2) (antibody, V domains shown)
VH: QVQLQQWGAGLLKPSETLSLTCTVYGGSFSGYYWNWIRQPPGKGLEWLGEINHSGSTNYNPSLKRRVTISVDTSKNQFSLKLSSVTAADTAVYYCARVYYYGPFDFWGQGTLVTVSS
VL: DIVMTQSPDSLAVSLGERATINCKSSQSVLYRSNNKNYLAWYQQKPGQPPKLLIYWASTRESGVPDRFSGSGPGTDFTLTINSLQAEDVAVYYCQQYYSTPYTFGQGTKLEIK
notes: as for B1
For the molecule B2, in [1], the binding result is recorded as “no binding (tested: 66.667 nM)”. In addition, the OD450 in assay [2] amounted to 0.28; in assay [3], 3.06; in assay [4] it was 0.7; in assay [5], 3.26.

B3: 7A4F10 (TIM-3 antibody purified from hybridoma, chimeric antibody of Example 2) (antibody, V domains shown)
VH: EVQLLESGGGLVQPGGSLRLSCAASGFTFRTHLISWVRQAPGKGLEWVAAITGSGGSTYYADSVKGRFIISRDNSKNTLFLQMNSLRAEDTAVYYCAKDGGSGSYDDFWGQGTLVTVSS
VL: ETVLTQSPVTLSLSPGERATLSCRASQSVGSYLAWYQQKPGQAPRLLIYDASNRATGIPARFSGSGSGTDFTLTISSLEPEDFAVYYCQQRSNWPPTFGQGTKVEIK
notes: as for B1
Turning to B3, the binding result in [1] is listed as “no binding (tested: 66.667 nM)”. Moreover, the OD450 in assay [2] is 0.13; in assay [3], 0.86; in assay [4], 0.57; in [5], 1.35.

B4: 57F4E5 fully human TIM-3 antibody (human IgG4, kappa) (antibody, V domains shown)
VH: EVQLVESGGGLVQPGGSLRLSCAASGFTFSSYWMSWVRQAPGKGLEWVANIKQDGSEKYYVDSVKGRFTISRDSAKNSLYLQMNSLRAEDTAMYFCARDSNFFDYWGQGTLVTVSS
VL: ETVMTQSPATLSVSPGERATLSCRASQSVSSNLAWYQRKPGQAPRLLIYFSSTRATGIPARFSGSGSGTEFTLTISSLQSEDFAVYYCQQYNNWPLTFGGGTKVEIK
As for B4, the Mean fluorescence intensity in assay [6] worked out at 69.7; in assay [7], 9.6. For the same molecule, the figures for the OD450 in assay [8] and in assay [9] were 0.08 and 0.32, respectively.

B5: 134H3G6 fully human TIM-3 antibody (human IgG4, kappa) (antibody, V domains shown)
VH: EVQLVESGGGLVQPGGSLRLSCAASGFTFSNSWMTWVRQAPGKGLEWVANIKQAGTEKYYVDSVKGRFTISRDNAKNSLYLQMNSLRAEDTAVYYCNSGSNYFDYWGQGTLVTVSS
VL: EIVMTQSPATLSVSPGERATLSCRARQNFYSNLAWYQQKPGQAPRLLIYGASTRATGIPARFSGSGSGTEFTLTISSLQSEDFAVYYCQQYNNWPLTFGGGTKVEIK
For the molecule B5, the Mean fluorescence intensity came to 96.6 in assay [6] and 13.5 in assay [7]. The OD450 came out at 0.1 in [8] and 0.3 in assay [9].

B6: 18D2H2 (TIM-3 antibody purified from hybridoma, chimeric antibody of Example 2) (antibody, V domains shown)
VH: EVQLVESGGDLVQPGGSLRLSCAASGFTFSTYWMTWVRQAPGRGLEWVANIKQDGSAKYYVDSVKGRFTLSRDDAKNSLYLQMNSLRAEDTAVYYCARGSNWFDYWGQGTLVTVSS
VL: ETVMTQSPATLSVSPGERATLSCRANQNVYSNLAWYQQKPGQAPRLLIYDASTRATGFPARFSGSGSGTEFTLTISSLQSEDFAVYYCQQYNNWPLTFGGGTKVEIK
notes: as for B1
Turning to B6, in assay [1], the binding result is listed as “no binding (tested: 66.667 nM)”. In addition, the OD450 was 0.16 in assay [2], 1.33 in assay [3], 0.62 in [4] and 1.89 in assay [5].

B7: 57F4E5 (TIM-3 antibody purified from hybridoma, chimeric antibody of Example 2) (antibody, V domains shown)
VH: EVQLVESGGGLVQPGGSLRLSCAASGFTFSSYWMSWVRQAPGKGLEWVANIKQDGSEKYYVDSVKGRFTISRDSAKNSLYLQMNSLRAEDTAMYFCARDSNFFDYWGQGTLVTVSS
VL: ETVMTQSPATLSVSPGERATLSCRASQSVSSNLAWYQRKPGQAPRLLIYFSSTRATGIPARFSGSGSGTEFTLTISSLQSEDFAVYYCQQYNNWPLTFGGGTKVEIK
notes: as for B1
Take B7: the binding result in [1] was “no binding (tested: 66.667 nM)”. Besides, the OD450 amounted to 0.63 in [2], 3.31 in [3], 1.13 in [4] and 3.45 in assay [5].

B8: 39E5H1 (TIM-3 antibody purified from hybridoma, chimeric antibody of Example 2) (antibody, V domains shown)
VH: EVQLVESGGGLVQPGGSLRLSCAASGFTFSSYWMSWVRQAPGKGLEWVANIKRGGSERYYVDSVKGRFTISGDNAKNSVYLQMNSLRAEDTAVYYCARGSNWFDPWGQGTLVTVSS
VL: ETVMTQSPAILSVSPGERATLSCRASQSVYSNLAWYQQKLGQAPRLLIYDASTRATGIPARFSGSGSGTEFTLTISSLQSEDFAVYYCQQYNNWPITFGQGTRLEIK
notes: as for B1
For the molecule B8, the binding result in assay [1] is reported as “no binding (tested: 66.667 nM)”. Moreover, the OD450 was 0.42 in assay [2], 3.41 in [3], 0.85 in assay [4] and 3.41 in assay [5].

B9: 134H3G6 (TIM-3 antibody purified from hybridoma, chimeric antibody of Example 2) (antibody, V domains shown)
VH: EVQLVESGGGLVQPGGSLRLSCAASGFTFSNSWMTWVRQAPGKGLEWVANIKQAGTEKYYVDSVKGRFTISRDNAKNSLYLQMNSLRAEDTAVYYCNSGSNYFDYWGQGTLVTVSS
VL: EIVMTQSPATLSVSPGERATLSCRARQNFYSNLAWYQQKPGQAPRLLIYGASTRATGIPARFSGSGSGTEFTLTISSLQSEDFAVYYCQQYNNWPLTFGGGTKVEIK
notes: as for B1
As for B9, the binding result in assay [1] is given as “no binding (tested: 66.667 nM)”. The OD450 in assay [2] is 0.13; in assay [3], 0.69; in [4] it was 0.56; in assay [5], 1.22.
